# Results taken from article doi:10.1101/2025.06.18.660498 (bioRxiv, 2025).
# T1: AF9 YEATS domain (1-138) (human, UniProt P42568 1-138)
# T1 sequence (looked up): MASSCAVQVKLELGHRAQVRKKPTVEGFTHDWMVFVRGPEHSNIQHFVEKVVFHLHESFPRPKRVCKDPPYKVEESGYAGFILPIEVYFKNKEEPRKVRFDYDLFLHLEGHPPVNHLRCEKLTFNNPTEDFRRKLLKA
# T2: AF9-F28R YEATS domain (1-138) (human, UniProt P42568 1-138, F28R)
# T2 sequence (looked up): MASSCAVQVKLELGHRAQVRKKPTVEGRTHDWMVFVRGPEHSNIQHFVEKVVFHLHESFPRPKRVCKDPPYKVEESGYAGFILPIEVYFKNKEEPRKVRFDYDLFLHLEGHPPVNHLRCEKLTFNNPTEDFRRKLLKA
# T3: AF9 YEATS domain F59Y (human, UniProt P42568 1-138, F59Y)
# T3 sequence (looked up): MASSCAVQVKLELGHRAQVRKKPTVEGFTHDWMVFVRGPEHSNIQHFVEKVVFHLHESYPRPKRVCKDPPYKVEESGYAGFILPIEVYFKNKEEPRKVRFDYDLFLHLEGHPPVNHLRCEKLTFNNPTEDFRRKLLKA
# What was measured:
# AF9 YEATS domain (1-138) = biological target: T1, AF9 YEATS domain (1-138); assay: ITC
# [1] = biological target: T2, AF9-F28R YEATS domain (1-138); assay: crystal structure
# AF9 YEATS domain F59Y = biological target: T3, AF9 YEATS domain F59Y; assay: ITC
Kd (AF9 YEATS domain (1-138)),binding result [1],fold reduction of affinity against WT AF9 YEATS (AF9 YEATS domain F59Y),Molecule
172 µM,–,–,H3K18la peptide
4.6 µM,–,–,H3K9ac peptide (ITC)
–,binds,–,"ARTKQTARKS (peptide, UniProt P68431 2-11, looked up, lactyl-lysine (L-lactylation) at K9) [H3_(1-10)K9la peptide]"
74.4 µM,–,2 fold,ARTKQTARKS (lactyl-lysine (L-lactylation) at K9) [H3K9la peptide (ITC)]
